# Values quoted from earlier work, collected in article PMC5529358.
# Legend:
# [1] = target: insulin receptor isoform B isoform B (Homo sapiens) (UniProt P06213)
# [2] = target: insulin receptor isoform A isoform A (Homo sapiens) (UniProt P06213)
# Chain of insulin (P01308 90-110): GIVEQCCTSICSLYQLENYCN
Kd [1] [nM],Kd [2] [nM],Substance
1.4,–,insulin (from UniProt P01308)
–,120,IGF-1 (from UniProt P05019)
